Test results: patent US20070224189A1 (published 2007)

Molecular target: extracellular region of human V158 FcγRIIIa fused with glutathione S-Transferase (GST) (human, UniProt P08637 17-208)
Assay: AlphaScreen competition

B1: WT alemtuzumab (antibody)
chain 1: not shown
chain 2: not shown
B1 showed an IC50 of 4.6 nM.
